This data set can be described thus: amyloid nucleation score (Sup35N fusion, yeast selection) (log enrichment); library NNK1; higher = more nucleation; inactive = no reads after selection. An outline of the steps: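 Peptides of 20 random codons, each fused to Sup35N, were expressed in psi-negative yeast. Cells were induced with 100 μM copper sulfate for 24 hours and grown 7 days at 30°C on medium lacking adenine and uracil, and plasmid inserts before and after selection were Illumina-sequenced. Nucleation scores are DiMSum log enrichments of output over input reads, centred on the mode score of non-aggregating sequences, and sequences under 100 input reads were excluded.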

± gives the uncertainty stated by the source.

SSKYTCFSDYKKCVYTLWRL showed an amyloid nucleation score of 0.292 ± 0.6.
Substance RSSNNIPGGYWEPYGQHHFH yielded an amyloid nucleation score of 2.44 ± 0.13.
Consider WAVSGVDKVTRLGSEGVMQS, for which the amyloid nucleation score was -0.809 ± 0.9.
DLTCWLLFFNLLYSI had an amyloid nucleation score of 0.492 ± 0.33.
With TEKTVRCDLTWQTHLLLCFA, the amyloid nucleation score was -0.369 ± 0.83.
VRLNNCNLFFCYMTRIAFAE displayed an amyloid nucleation score of 4.96 ± 0.067.
As for GSHTGEFRYVF, the amyloid nucleation score was -0.83 ± 0.42.
DDQKIRRY displayed an amyloid nucleation score of 0.602 ± 0.34.
Consider CTFSSWRESGFWTSLIHGYL, for which the amyloid nucleation score was -0.218 ± 0.36.
Substance TDNTSFELYIWTDAFLKQTT registered an amyloid nucleation score of 0.208 ± 1.
Next, HWSSSS: -0.745 ± 0.66; FEHWCFRLPCVKDESCWD: 0.821 ± 0.8; NELWCKADVMS: “inactive”.
The substance LHRIVTVNIP displayed an amyloid nucleation score of 1.23 ± 0.8.
As for MNLYNRNYLYCIYRKETTTT, the amyloid nucleation score was -0.957 ± 1.4.
Substance IWSGATV returned an amyloid nucleation score of 0.445 ± 0.41.
In turn, VDSRSWTNLMWSRVAKWLMG had an amyloid nucleation score of 0.155 ± 0.51.
VTRYTLVYFPLSLIRSTPAN displayed an amyloid nucleation score of 0.62 ± 0.36.
Turning to RQDGYPRCIVRVILLECSLI, the amyloid nucleation score was -0.321 ± 0.66.
SGAYLKASYTSPSVRVFLVL yielded an amyloid nucleation score of 2.75 ± 0.25.
Next, SYMFWIPLATQWKRVLNRVW: -0.479 ± 0.54; LTRDEGPIEDKNVEARFRVS: 0.098 ± 0.31; HGFNPNWGSRVKGSMVRV: -0.044 ± 0.47.
The result for CKVDRFIRCGVGYLSG reads 0.039 ± 0.28.
YDYHRNLSNHFLCFTLNWLT: the amyloid nucleation score came to 5.23 ± 0.072.
Regarding KGYSSTYGRPSKHYCC, the amyloid nucleation score result is “inactive”.
On to PTVYSDYTCSTFMWISD, for which the amyloid nucleation score is 0.299 ± 0.6.
LDGTLVLTYL: the amyloid nucleation score came to 0.134 ± 0.42.
As to DLFSTVFNWMTNCPFKNSW, the amyloid nucleation score is -0.32 ± 0.49.
Turning to GFSNLNSYD, the amyloid nucleation score was -0.55 ± 0.3.
Turning to CTAQTSCILW, the amyloid nucleation score worked out at 0.2 ± 0.29.
HVMTFEVSFRTGCKDVINWV had an amyloid nucleation score of 1.03 ± 0.18.
For HIFCRVIPLHMYKLADNW, the amyloid nucleation score was 0.841 ± 0.8.
As to KYLFFMVFQWS, the amyloid nucleation score stood at 0.439 ± 0.84.
As to TTLIILDTYLNMIVVGTLYW, the amyloid nucleation score amounted to 0.11 ± 0.22.
The result for VCLRLARWILHQKHTYVYWY reads “inactive”; that for LIYPGIVDFVFSDARQGCSR, 1.08 ± 0.69.
Next, LLRWLRTVVSGGCVSVNLVE: 0.034 ± 0.28; CLVPAQGCYYGYLLTLMVER: -0.264 ± 0.52; IGGVFALHCRMNIAPGSHTL: 2.38 ± 0.14.
The substance SSVCFGYRAIGTIRHMFSKC showed an amyloid nucleation score of 0.311 ± 0.33.
The result for KLETYYGAFNFNWFLSLNGD reads 5.08 ± 0.061; that for NRAECSFVCTEYVNICK, -0.313 ± 0.43.
The substance TSSAFVCVENTLWTEVVEPM returned an amyloid nucleation score of 0.411 ± 0.55.
STERKYLSLDKSWNVRLVLF registered an amyloid nucleation score of 1.61 ± 0.23.
QNPWNGILLAKNWRDKMLRN: the amyloid nucleation score stood at 0.3 ± 0.52.
Regarding FFLLIFSVRGNPFFIKW, the amyloid nucleation score was -0.153 ± 0.66.
MVLWW: the amyloid nucleation score was -0.231 ± 0.58.
Substance FGNSFRSQGVSFM showed an amyloid nucleation score of 0.414 ± 0.32.
The substance TLSGVYTFCMFLVWVDSASG registered an amyloid nucleation score of 0.843 ± 0.62.
In turn, KDVVISVGGMSVVLFSSRPH yielded an amyloid nucleation score of 4.52 ± 0.091.
LRHFSRSF: the amyloid nucleation score came out at 0.16 ± 0.29.
Substance MWYNCFMTNPGFQLSPMGSI registered an amyloid nucleation score of 0.851 ± 0.55.
AQLYVNWFCVWSFKE: the amyloid nucleation score worked out at 6.2 ± 0.08.
The substance FRVGYFAHSCRYVRSGRHMV showed an amyloid nucleation score of 0.401 ± 0.26.
For VCFTYNFSPQLVL, the amyloid nucleation score is 0.098 ± 0.38.
On to MINVYK, for which the amyloid nucleation score came to 4.33 ± 0.073.
As to DRPTFKLVFTMKLVSLVTSL, the amyloid nucleation score result was “inactive”.
On to FLDYKTSSGHRLYLDRAKES, for which the amyloid nucleation score was -0.492 ± 0.36.
NLNTASQNIASLGLGALVLW: the amyloid nucleation score is 0.073 ± 0.44.
In the case of IALSTYCRNTDSPSSSGSCY, the amyloid nucleation score is -0.245 ± 0.77.
Consider ILYMWWVRPLVQAQENRRRY, for which the amyloid nucleation score is -0.089 ± 0.39.
Consider RWSETR, for which the amyloid nucleation score was 0.998 ± 0.48.
Take RDYSFGGLMPGCDGEHIVS: the amyloid nucleation score was -0.138 ± 0.4.
With MGILW, the amyloid nucleation score was -0.328 ± 0.66.
In the case of QFYVSVFEIYSLLTRKCACR, the amyloid nucleation score entry is “inactive”.
With FVTWH, the amyloid nucleation score entry was “inactive”.
The result for WLTTGFLFVKLGGHKESSVQ reads 0.015 ± 0.33; that for SQNVPDCVLKTLRFDVPCCR, 1.14 ± 0.4.
For RASFIELVTEKRHPSHTPGK, the amyloid nucleation score was -0.473 ± 0.39.
The result for HTSFGVCVSVICFVLRWAYH reads “inactive”; that for FFIICSYR, -0.868 ± 0.37; that for ILKELSKPGVQPVVS, 0.575 ± 0.8.
As for FVATNPVL, the amyloid nucleation score is 0.588 ± 0.42.
For QSLDE, the amyloid nucleation score is -0.44 ± 0.28.
In turn, YTLMLCNVASVDSWI displayed an amyloid nucleation score of 5.05 ± 0.063.
The substance TLDKDLDMGRP registered an amyloid nucleation score of 0.625 ± 0.56.
The result for KLGPVTYLYP reads -0.03 ± 0.72.
Consider LLAVAGPLLWLYRYMISFIS, for which the amyloid nucleation score turned out to be 0.071 ± 0.97.
As to YELKQSL, the amyloid nucleation score was -0.301 ± 0.73.
Next, YRKRYDWWTVEAVLASVFGS: 1.18 ± 0.57; YFCPLKCVMPENDCPFPMVM: 0.416 ± 0.25; CFGKSSVWHRYRFYIGNRAI: -0.613 ± 0.75.
Consider FLIFIRFNGHCLSIGWFTLH, for which the amyloid nucleation score stood at 0.303 ± 1.
For YLVRVMFWLLGRCEA, the amyloid nucleation score result was “inactive”.
In turn, ICKFDLALKFRGRYTEAEWC gave an amyloid nucleation score of 1 ± 0.32.
Consider SRYYASYFGIG, for which the amyloid nucleation score is 0.034 ± 0.97.
With RKFMDYSLKFSWRGVIPVMR, the amyloid nucleation score was -1.83 ± 1.8.
In the case of VSESDKEGLEK, the amyloid nucleation score was -1.17 ± 1.6.
The result for KWNCLVSCRLCELYLIPLI reads 3.58 ± 0.081; that for GIRFLWPFLIPRLHKVIARR, “inactive”; that for TIKMDTQVLVYIRKRNKYCW, -0.746 ± 0.79.
On to SEAVCVRVQLAWDRLMGVRV, for which the amyloid nucleation score worked out at 0.966 ± 0.64.
The substance VTQSYDFKSLQIISIQN gave an amyloid nucleation score of 1.39 ± 0.12.
ISIQSLRLSSSSWNLTLHCG: the amyloid nucleation score is 3.25 ± 0.097.
Next, RRVGVYDGLRIFS: 0.086 ± 0.93; IVVLLKNRS: 0.488 ± 0.47; IEVKSWYATPNFGSQLSKRD: 0.274 ± 0.45.
On to NHSLMGVSTSFWI, for which the amyloid nucleation score is -0.334 ± 0.45.
NTLYYRSFRAIQLPGGENQN: the amyloid nucleation score was -1.09 ± 1.9.
On to LEKQMNASQFAPPRLLLRKL, for which the amyloid nucleation score amounted to 0.498 ± 0.87.
Substance ARIEFSGWFHPQLDLVFFVQ returned an amyloid nucleation score of 1.97 ± 0.15.
The result for DWLFLEFGHFTMPEHTKELE reads -0.68 ± 1.2; that for YTVMVVI, 1.44 ± 0.4.
On to YDNRSALDWCLGEVMFAST, for which the amyloid nucleation score was -0.993 ± 0.35.
As for GISSSTLTFRTMWEDRCVEG, the amyloid nucleation score is 0.825 ± 0.66.
FRRYLWFRDRPGFCCFRLMQ: the amyloid nucleation score was -0.46 ± 1.5.
Regarding GYSIDIP, the amyloid nucleation score entry is “inactive”.
HTWNPDYVAECFKEFKRLYK: the amyloid nucleation score is 0.393 ± 0.61.
Next, EGRSWW: -0.691 ± 1.4; YAFARCLTHINVVALIVRMC: -1.18 ± 0.64; IFHLCFLKGNGSFMLYKRHT: -0.462 ± 0.51.
The result for KDCDMIGDSVYGSKFVTREM reads 0.503 ± 0.34; that for CKCWFM, 0.307 ± 0.52.
As to VWCVFFLVLYFYR, the amyloid nucleation score came out at 0.422 ± 0.57.
With MKQFIKNLNISLPPARTQLT, the amyloid nucleation score entry was “inactive”.
SSNSPCMPVRRTADNPSPYA showed an amyloid nucleation score of 0.239 ± 0.51.
Regarding SRYWKFRCTFSTKFESTKRS, the amyloid nucleation score was 3.95 ± 0.17.
RVNYDVLVHLMPGLWVRTRL registered an amyloid nucleation score of 0.372 ± 1.4.
For the substance DLEIAGREGS, the amyloid nucleation score was -0.322 ± 0.55.
On to YARIAKRTFLVYSQNEARFE, for which the amyloid nucleation score is 0.843 ± 0.98.
The substance WRARLWDLNPWHVAREMIAG gave an amyloid nucleation score of 0.096 ± 0.93.
With RRPASFLFFTYPILLQVFTF, the amyloid nucleation score is -1.22 ± 2.1.
Turning to GVASNYPNHLVLNSR, the amyloid nucleation score was -0.211 ± 0.34.
As for LGPNFGTKFNMGCY, the amyloid nucleation score is -0.304 ± 0.24.
Regarding HTRIADGPAC, the amyloid nucleation score worked out at 0.018 ± 0.21.
The result for GYPGCHLFVSWTTVGPVFFY reads 8.239 ± 0.047; that for EWDSYMGPFAERMEYNVVFH, 0.398 ± 0.62.
Take FSNDRCGFVAR: the amyloid nucleation score came to 0.149 ± 0.26.
Take QDIQSISWHAFVVESFKSEK: the amyloid nucleation score was -0.094 ± 0.32.
Take GRLCPLRSKTSFNCY: the amyloid nucleation score is -1.81 ± 1.3.
Regarding SNVVNGLDTYSQPGKGWCVR, the amyloid nucleation score turned out to be 0.581 ± 0.37.
The result for GYRCMHLWTRSPSFIRPVVS reads 0.67 ± 0.97; that for DSSSYICSLSSPYSWSISFF, 7.366 ± 0.07; that for KCMTIAWIQSSVSAILLLNC, -0.181 ± 1.4.
For IGATLAPLTMSLNRSSDESS, the amyloid nucleation score turned out to be 0.655 ± 0.64.
Consider DVYKKIFLRLNCYQVSMRIE, for which the amyloid nucleation score was -0.697 ± 0.27.
In turn, LVTMLLNKYIVNRSHDGVRI gave an amyloid nucleation score of 0.966 ± 0.49.
On to AEAKN, for which the amyloid nucleation score is -1.01 ± 0.9.
The result for KRFSKDLLMAESDLCIGCMM reads -0.817 ± 2.4.

The values are drawn from the supplement of paper PMC12042874.
